Measured values reported in patent publication US20190071480A1 (Biogen, published 2019).
Each block holds one binder with its values, some of them ahead of it.

Tests used:
[1] = target: T1, extracellular domain of activin receptor type IIB (ActRIIBecd), biotinylated (Homo sapiens (Human), UniProt Q13705 27-117, amino-biotinylated with amine-PEG3-Biotin); assay: BIAcore SPR as Example 5 (method not restated); SD ±2.01 nM
T1 construct: immobilised on a streptavidin-coated sensor chip; also called biotinylated ActRIIBecd; extracellular domain of ActRIIB
T1 sequence: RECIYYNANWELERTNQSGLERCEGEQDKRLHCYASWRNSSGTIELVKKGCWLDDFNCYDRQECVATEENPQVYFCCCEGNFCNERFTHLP
Description: (§1) Biosensor experiments. In one embodiment, experiments were performed on a BIAcore™ T100/T200 instrument (Pharmacia Biosensor AB) in the multichannel mode (serial flow path involving flow cells 1+2+3+4). Flow rate was 10 μl/min; temperature was 25° C.; and data were recorded at 2.5 points/s. All four segments of a sensor chip CMS were coated with streptavidin (Sigma) to a density of 2000 pg/mm² (2000 resonance units) by the aminocoupling procedure. ActRIIBecd (10 mg) and amine-PEG3-Biotin (10 mg, Pierce, Rockford, Ill.) were dissolved in 200 μl H₂O and 10 mg NaCNBH₃ was added to prepare biotinylated ActRIIBecd. The reaction mixture was heated at 70° C. for 24 h, after that a further 10 mg NaCNBH₃ was added and the reaction was heated at 70° C. for another 24 h. After cooling to room temperature, the mixture was desalted with the spin column (3,000 molecular weight cut off (MWCO)). […] Sensograms were recorded during flow of the analyte (the ActRIIBecd-associated polypeptides (i.e., domains) as previously described) first through flow cell 1 (control) then through flow cell 2 (biotinylated ActRIIBecd). […] The sensograms obtained at 1.11, 3.33, 10, 30, and 90 nM analyte were evaluated for equilibrium binding, association rate, and dissociation rate by using the programs supplied with the instrument (BIA evaluation 2.1; Software Handbook. 1995; Pharmacia Biosensor AB).

[2] = target: T1, extracellular domain of activin …; assay: Mean KD column of Table 5; method not restated (BIAcore as Example 5); species also listed in Table 4
Method in brief: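 Using a streptavidin-captured, biotinylated ectodomain, binding of the domain polypeptides was monitored at 25° C, 10 μl/min. Association, dissociation and equilibrium values were evaluated from concentrations of 1.11, 3.33, 10, 30 and 90 nM.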

[3] = target: T1, extracellular domain of activin …; assay: BIAcore SPR, biotinylated ActRIIBecd on chip; SD ±12.10 nM
Description: as §1

[4] = target: T1, extracellular domain of activin …; assay: BIAcore SPR, biotinylated ActRIIBecd on chip; SD ±12.01 nM
Description: as §1

[5] = target: T1, extracellular domain of activin …; assay: BIAcore SPR, biotinylated ActRIIBecd on chip; SD ±13.97 nM
Description: as §1

[6] = target: T1, extracellular domain of activin …; assay: BIAcore SPR as Example 5 (method not restated); SD ±2.12 nM
Description: as §1

[7] = target: T1, extracellular domain of activin …; assay: BIAcore SPR, biotinylated ActRIIBecd on chip; SD ±16.71 nM
Description: as §1

[8] = target: T1, extracellular domain of activin …; assay: BIAcore SPR, biotinylated ActRIIBecd on chip; SD ±15.39 nM
Description: as §1

[9] = target: T1, extracellular domain of activin …; assay: BIAcore SPR, biotinylated ActRIIBecd on chip; SD ±12.04 nM
Description: as §1

[10] = target: T1, extracellular domain of activin …; assay: BIAcore SPR, biotinylated ActRIIBecd on chip; SD ±11.61 nM
Description: as §1

[11] = target: T1, extracellular domain of activin …; assay: BIAcore SPR, biotinylated ActRIIBecd on chip; SD ±10.27 nM
Description: as §1

- Kd [1]: 46 nM
- Kd [2]: 46 nM
B1: SEQ ID NO: 194, cysteine pairs C23-C65^a (designed binder)
chain: VDFSDVGWNDWIVAPPGYHAFYCHGECPFPLADHLNSTNHAIVQTLVNSVAQAKHKQRKRLKSSCKRHPLY
modifications: disulfides C23-C65 (intra)

- Kd [3]: 17.1 nM
B2: Recombinant polypeptide of clones 8 + 21 + 15 (designed binder)
chain: GQAKRKGYKRLKSSCKRHPLYNSKIPKACCVPTELSAISMLYLDENEKVVLKNYQDMVVEGCGCRVDFSDVGWNDWIVAPPGYHAFYCHGECPFPLADHLNSTNHAIVQTLVNSV

- Kd [4]: 16 nM
B3: Recombinant polypeptide of clones 19 + 8 + 14 (designed binder)
chain: NSKDPKACCVPTELSAPSPLYLDENEKPVLKNYQDMVVHGCGCRGQAKRKGYKRLKSSCKRHPLYVDFKDVGWNDHAVAPPGYHAFYCHGECPFPLADHLNSDNHAIVQTKVNSV

- Kd [5]: 17 nM
B4: Recombinant polypeptide of clones 10 + 19 + 14 (designed binder)
chain: AQAKHKQRKRLKSSCKRHPLYNSKDPKACCVPTELSAPSPLYLDENEKPVLKNYQDMVVHGCGCRVDFKDVGWNDHAVAPPGYHAFYCHGECPFPLADHLNSDNHAIVQTKVNSV

- Kd [6]: 42.3 nM
- Kd [2]: 42.3 nM
B5: SEQ ID NO: 188, cysteine pairs C15-C44^a (designed binder)
chain: AQAKHKQRKRLKSSCKRHPLYVDFSDVGWNDWIVAPPGYHAFYCHGECPFPLADHLNSTNHAIVQTLVNSV
modifications: disulfides C15-C44 (intra)

- Kd [7]: 52.4 nM
Binder: AQAKHKGYKRLKSSCKRHPLY [Clone No. 9 domain (ActRIIBecd-associated polypeptide)]

- Kd [8]: 45.1 nM
Binder: GQAKRKGYKRLKSSCKRHPLY [Clone No. 8 domain (ActRIIBecd-associated polypeptide)]

- Kd [9]: 16.5 nM
B6: Recombinant polypeptide of clones 8 + 15 + 19 (designed binder)
chain: GQAKRKGYKRLKSSCKRHPLYVDFSDVGWNDWIVAPPGYHAFYCHGECPFPLADHLNSTNHAIVQTLVNSVNSKDPKACCVPTELSAPSPLYLDENEKPVLKNYQDMVVHGCGCR

- Kd [10]: 18 nM
B7: Recombinant polypeptide of clones 10 + 14 + 21 (designed binder)
chain: AQAKHKQRKRLKSSCKRHPLYVDFKDVGWNDHAVAPPGYHAFYCHGECPFPLADHLNSDNHAIVQTKVNSVNSKIPKACCVPTELSAISMLYLDENEKVVLKNYQDMVVEGCGCR

- Kd [11]: 14.1 nM
B8: Recombinant polypeptide of clones 19 + 14 + 8 (designed binder)
chain: NSKDPKACCVPTELSAPSPLYLDENEKPVLKNYQDMVVHGCGCRVDFKDVGWNDHAVAPPGYHAFYCHGECPFPLADHLNSDNHAIVQTKVNSVGQAKRKGYKRLKSSCKRHPLY
